The source of these data is patent US20220389066A1, “POLYPEPTIDES” (Affibody AB, priority 2019, published 2022).

One may read the Kd as the constant that tells how readily two partners part at equilibrium. High values mean a looser complex, low ones a tighter complex.

For experiment [1], the target named is T1, ZH 29 as periplasmic ABD fusion AQHDEALE-[ZH 29]-VDYV-[ABD]-YVPG (Streptococcus strain G148, UniProt P19909 254-299, limits assumed).
T1 construct: domain: GA3
The experiment in a line: SPR (Biacore 2000) screening; periplasmic Z-ABD captured on anti-ABD antibody, 200 nM boxA(disulfide); 1:1 model; average of 3 measurements. The method, then: (§1) Biacore screening of Z variants: The binding of Z variants to boxA(disulfide) was analyzed in an affinity screening using a Biacore 2000 instrument. A polyclonal goat anti-ABD antibody (goat anti-ABD) was immobilized on CM5 chip surfaces basically as described for other proteins in Example 3. For the kinetic screening, analytes were injected in two steps. First, a Z-ABD (where ABD is GA3) periplasmic extract was injected over the surface at 5 μl/min for 10 min. As a second step, 200 nM boxA(disulfide) was injected at 20 μl/min for 5 min, followed by 10 min of dissociation in running buffer HBS-EP. Glycine-HCl pH 2.0 (GE Healthcare, cat. no. BR100355) was used for regeneration of the antibody surfaces between the cycles. The temperature of the assay was 25° C. Before performing the kinetic analyses, the signal from 200 nM boxA(disulfide) injected over a reference surface containing goat anti-ABD but no Z-ABD sample was subtracted from the sensorgram of Z-ABD binding to boxA(disulfide). […] A periplasmic extract of ZH 01 was included in the screening analysis for comparison. […]

The target in experiment [2] is T2, ZH 06 as periplasmic ABD fusion AQHDEALE-[ZH 06]-VDYV-[ABD]-YVPG (Streptococcus strain G148, UniProt P19909 254-299, limits assumed).
T2 construct: domain: GA3
The experiment in a line: SPR (Biacore 2000) screening; periplasmic Z-ABD captured on anti-ABD antibody, 200 nM boxA(disulfide); 1:1 model. The method, then:
(§2) Biacore screening of Z variants: The binding of Z variants to boxA(disulfide) was analyzed in an affinity screening using a Biacore 2000 instrument. A polyclonal goat anti-ABD antibody (goat anti-ABD) was immobilized on CM5 chip surfaces basically as described for other proteins in Example 3. For the kinetic screening, analytes were injected in two steps. First, a Z-ABD (where ABD is GA3) periplasmic extract was injected over the surface at 5 μl/min for 10 min. As a second step, 200 nM boxA(disulfide) was injected at 20 μl/min for 5 min, followed by 10 min of dissociation in running buffer HBS-EP. Glycine-HCl pH 2.0 (GE Healthcare, cat. no. BR100355) was used for regeneration of the antibody surfaces between the cycles. The temperature of the assay was 25° C. Before performing the kinetic analyses, the signal from 200 nM boxA(disulfide) injected over a reference surface containing goat anti-ABD but no Z-ABD sample was subtracted from the sensorgram of Z-ABD binding to boxA(disulfide). […] A periplasmic extract of ZH 01 was included in the screening analysis for comparison.
(§3) Biacore screening of Z variants: Seven new unique Z variants giving the highest response in ELISA-screen, ZH 04 (SEQ ID NO:4), ZH 05 (SEQ ID NO:5), ZH 06 (SEQ ID NO:6), ZH 07 (SEQ ID NO:7), ZH 08 (SEQ ID NO:8), ZH 09 (SEQ ID NO:9) and ZH 10 (SEQ ID NO:10) were submitted to a Biacore affinity screening together with ZH 01 (SEQ ID NO:1) and ZH 29 (SEQ ID NO:29; its binding motif is identical to that of ZH 01, but the sequence comprises scaffold amino acid variations V1A, D2E, Y5F, N52S and D53E). A single concentration of boxA(disulfide) was injected over each Z-ABD captured from periplasmic extracts on a sensor chip surface containing an anti-ABD antibody.

For experiment [3], the target named is T3, ZH 01 as periplasmic ABD fusion AQHDEALE-[ZH 01]-VDYV-[ABD]-YVPG (Streptococcus strain G148, UniProt P19909 254-299, limits assumed).
T3 construct: domain: GA3
Described as above. The method, then:
as §2, §3

Experiment [4] concerns the target T4, ZH 10 as periplasmic ABD fusion AQHDEALE-[ZH 10]-VDYV-[ABD]-YVPG (Streptococcus strain G148, UniProt P19909 254-299, limits assumed).
T4 construct: domain: GA3
The description is as above. The method, then:
as §2, §3

In experiment [5] the target is T5, ZH 08 as periplasmic ABD fusion AQHDEALE-[ZH 08]-VDYV-[ABD]-YVPG (Streptococcus strain G148, UniProt P19909 254-299, limits assumed).
T5 construct: domain: GA3
Described as above. The method, then:
as §2, §3

Experiment [6] deals with T6, ZH 05 as periplasmic ABD fusion AQHDEALE-[ZH 05]-VDYV-[ABD]-YVPG (Streptococcus strain G148, UniProt P19909 254-299, limits assumed).
T6 construct: domain: GA3
Described as above. The procedure:
as §2, §3

Experiment [7] addresses T7, ZH 09 as periplasmic ABD fusion AQHDEALE-[ZH 09]-VDYV-[ABD]-YVPG (Streptococcus strain G148, UniProt P19909 254-299, limits assumed).
T7 construct: domain: GA3
The experiment is described as above. The method, then:
as §2, §3

The target in experiment [8] is T8, ZH 07 as periplasmic ABD fusion AQHDEALE-[ZH 07]-VDYV-[ABD]-YVPG (Streptococcus strain G148, UniProt P19909 254-299, limits assumed).
T8 construct: domain: GA3
The experiment in a line: SPR (Biacore 2000) screening; periplasmic Z-ABD captured on anti-ABD antibody, 200 nM boxA(disulfide); 1:1 model; average of 8 measurements. The method, then:
as §1

The target in experiment [9] is T9, ZH 04 as periplasmic ABD fusion AQHDEALE-[ZH 04]-VDYV-[ABD]-YVPG (Streptococcus strain G148, UniProt P19909 254-299, limits assumed).
T9 construct: domain: GA3
The experiment in a line: SPR (Biacore 2000) screening; periplasmic Z-ABD captured on anti-ABD antibody, 200 nM boxA(disulfide); 1:1 model; average of 2 measurements. The method, then: as §1

B1: boxA(disulfide), disulfide linked form of A-box domain of HMGB1 (other)
chain: MGKGDPKKPRGKMSSYAFFVQTCREEHKKKHPDASVNFSEFSKKCSERWKTMSAKEKGKFEDMAKADKARYEREMKTYIPPKGETKKKF
modifications: disulfide C23-C45
notes: also called b-boxA(disulfide)
For the molecule B1, the Kd in experiment [1] was approximately 36 nM; in experiment [2], approximately 71 nM; in experiment [3], approximately 4.7 nM; in experiment [4], approximately 47 nM; in [5], approximately 31 nM; in experiment [6], approximately 54 nM. The Kd in [7] was approximately 91 nM; in experiment [8], approximately 44 nM; in experiment [9] it was approximately 54 nM.
